Experimental data as given in US20200157519A1 (IMMUNWORK, published 2020).
Numbering of substitutions follows the chain as printed.

T1: crosslinked human fibrin treated by human factor XIIIa (human, UniProt P02671 36-629; P02675 45-491; P02679 27-437, crosslinked by factor XIIIa)
T1 construct: Coated human fibrinogen treated with thrombin and 0.55 ug factor XIIIa (Zedira) per well; also called crosslinked fibrin
T1 sequence (looked up) 1: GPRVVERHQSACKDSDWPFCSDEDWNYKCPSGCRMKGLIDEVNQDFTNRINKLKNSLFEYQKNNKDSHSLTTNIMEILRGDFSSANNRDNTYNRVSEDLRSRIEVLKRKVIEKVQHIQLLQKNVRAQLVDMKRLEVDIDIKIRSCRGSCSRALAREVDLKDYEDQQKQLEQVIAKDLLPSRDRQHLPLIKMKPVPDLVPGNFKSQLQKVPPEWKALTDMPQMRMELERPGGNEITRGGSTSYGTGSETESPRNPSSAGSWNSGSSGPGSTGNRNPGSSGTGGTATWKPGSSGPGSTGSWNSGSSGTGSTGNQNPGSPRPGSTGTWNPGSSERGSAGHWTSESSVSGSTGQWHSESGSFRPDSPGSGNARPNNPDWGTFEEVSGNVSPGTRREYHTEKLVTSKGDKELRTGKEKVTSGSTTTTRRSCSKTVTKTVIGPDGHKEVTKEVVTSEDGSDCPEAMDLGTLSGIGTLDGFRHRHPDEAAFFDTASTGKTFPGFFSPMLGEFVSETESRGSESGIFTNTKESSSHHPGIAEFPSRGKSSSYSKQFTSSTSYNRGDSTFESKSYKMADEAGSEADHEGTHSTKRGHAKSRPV
T1 sequence (looked up) 2: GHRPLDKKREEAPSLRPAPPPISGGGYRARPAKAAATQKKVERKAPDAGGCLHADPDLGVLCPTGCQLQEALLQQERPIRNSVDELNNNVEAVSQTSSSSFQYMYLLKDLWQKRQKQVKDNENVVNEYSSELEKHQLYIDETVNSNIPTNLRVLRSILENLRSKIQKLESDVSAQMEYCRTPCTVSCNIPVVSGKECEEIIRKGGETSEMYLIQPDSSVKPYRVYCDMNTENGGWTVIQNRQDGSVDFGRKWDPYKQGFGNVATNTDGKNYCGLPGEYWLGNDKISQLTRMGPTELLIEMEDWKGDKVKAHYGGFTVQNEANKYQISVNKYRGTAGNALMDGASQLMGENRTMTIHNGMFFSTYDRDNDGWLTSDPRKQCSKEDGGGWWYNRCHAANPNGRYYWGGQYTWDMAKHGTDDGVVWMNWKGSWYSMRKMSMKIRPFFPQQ
T1 sequence (looked up) 3: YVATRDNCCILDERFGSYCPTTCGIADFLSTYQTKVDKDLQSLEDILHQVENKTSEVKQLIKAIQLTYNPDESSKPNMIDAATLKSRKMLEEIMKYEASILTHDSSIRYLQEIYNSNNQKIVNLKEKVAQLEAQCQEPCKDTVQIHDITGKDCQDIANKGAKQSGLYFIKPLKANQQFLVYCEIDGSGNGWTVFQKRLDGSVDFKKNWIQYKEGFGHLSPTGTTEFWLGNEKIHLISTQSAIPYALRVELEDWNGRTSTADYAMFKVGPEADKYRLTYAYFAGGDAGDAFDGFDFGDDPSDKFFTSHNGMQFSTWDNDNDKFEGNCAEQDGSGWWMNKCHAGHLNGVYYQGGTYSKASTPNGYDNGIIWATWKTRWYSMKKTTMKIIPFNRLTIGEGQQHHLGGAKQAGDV

T2: human fibrin (human fibrinogen coated on the plate and treated with thrombin) (human, UniProt P02671 36-629; P02675 45-491; P02679 27-437)
T2 construct: Made on the plate: coated human fibrinogen (Sigma) treated with 1.0 U/mL thrombin, CaCl2 and L-cysteine
T2 sequence (looked up) 1: T1 sequence (looked up) 1
T2 sequence (looked up) 2: T1 sequence (looked up) 2
T2 sequence (looked up) 3: T1 sequence (looked up) 3

B1: recombinant anti-fibrin 102-10 antibody (full-length) (antibody, human IgG1, kappa, V domains shown)
VH: QIQLVQSGPELKKPGETVKISCKASGYTFTNYGMNWVKQAPGKGLKWMGWINTYTGEATYADDFKGRFAFSLETSANTAYVQINNLKNEDTATYFCARLMDYWGQGTSVTVSS
VL: DIQMTQSPSSLSASLGGKVTITCKASQDINKYIAWFQHKPGKGPRLLIHYTSTLQPGIPSRFSGSGSGRDYSFSISNLEPEDLATYYCLQYDNLTWTFGGGTKLEIKR
B2: recombinant anti-fibrin 3D5 antibody (full-length) (antibody, human IgG1, kappa, V domains shown)
VH: EVQLVESGGGLVQPGGSLRLSCAASGFTISDFGIHWVRQAPGKGLEWVASIWPSGGYTYYADSVKGRFTISADTSKNTAYLQMNSLRAEDTAVYYCARSWFYSWYDYWGQGTLVTVSS
VL: DIQMTQSPSSLSASVGDRVTITCRASQDVSNNVAWYQQKPGKAPKLLIFWSPWLYSGVPSRFSGSGSGTDFTLTISSLQPEDFATYYCQQGWDSPVTFGQGTKVEIKR
notes: Expressed from the pG1K vector in Expi293F cells, purified on Protein A
B3: phage-displayed 3D5 scFv (scFv)
scFv: DIQMTQSPSSLSASVGDRVTITCRASQDVSNNVAWYQQKPGKAPKLLIFWSPWLYSGVPSRFSGSGSGTDFTLTISSLQPEDFATYYCQQGWDSPVTFGQGTKVEIKRGGGGSGGGGSGGGGSEVQLVESGGGLVQPGGSLRLSCAASGFTISDFGIHWVRQAPGKGLEWVASIWPSGGYTYYADSVKGRFTISADTSKNTAYLQMNSLRAEDTAVYYCARSWFYSWYDYWGQGTLVTVSS
notes: Tested as secreted scFv in culture supernatant, detected through its E-tag
B4: scFv clone 3C2 (scFv, V domains shown)
VH: EVQLVESGGGLVQPGGSLRLSCAASGFTIGNSSIHWVRQAPGKGLEWVAGIWPYWGSTYYADSVKGRFTISADTSKNTAYLQMNSLRAEDTAVYYCARFGINNDGFMDYWGQGTLVTVSS
VL: DIQMTQSPSSLSASVGDRVTITCRASQDVSGWVAWYQQKPGKAPKLLISSTGSLYSGVPSRFSGSGSGTDFTLTISSLQPEDFATYYCQQYYDFPITFGQGTKVEIKR
notes: Tested as a secreted scFv with E-tag from the phage library
B5: scFv clone 8F2 (scFv, V domains shown)
VH: EVQLVESGGGLVQPGGSLRLSCAASGFTINNYGIHWVRQAPGKGLEWVAGIWPYWGYTYYADSVKGRFTISADTSKNTAYLQMNSLRAEDTAVYYCARFDSNSYSSYSDGFMDYWGQGTLVTVSS
VL: B4 VL with S30D, G31N, W32S, T51A, G52R, D93N, F94Y
notes: as for B4
B6: scFv clone 7A3 (scFv, V domains shown)
VH: EVQLVESGGGLVQPGGSLRLSCAASGFTINDWSIHWVRQAPGKGLEWVAYIGPFWGSTFYADSVKGRFTISADTSKNTAYLQMNSLRAEDTAVYYCARGYFGFDYWGQGTLVTVSS
VL: B4 VL with S30G, T51P, G52R, Y92F, D93S, F94S, I96F
notes: as for B4

Target: T1, crosslinked human fibrin treated by …
Assay: ELISA on crosslinked fibrin plate, HRP-protein L

Binder | binding result
B1 | binds
B2 | binds

Target: T2, human fibrin (human fibrinogen coated …)
Assay: ELISA on fibrin-coated plate, HRP-protein L
Method: Each fibrin plate was prepared as follows. 100 μL of TBS containing a final concentration of 1.0 U/mL thrombin (Sigma), 2 mM CaCl, and 7 mM L-cysteine (Merck) was added to the wells of the fibrinogen plate, which was then washed with TBS and blocked with the buffer (5% non-fat dry milk/PBS). After the blocking, 100 μL of antibodies were added to each well, and the plate was incubated at room temperature for 1 hour. The plate was then washed three times, the HRP-conjugated protein L diluted to 1/5000 was added to the wells and incubated for 1 hour at room temperature. The wells were washed three times and added with 100 μL of TMB substrate buffer. 5 minutes later, the color development was stopped with 1 M HCl. The optical density (OD) was measured at 450 nm using a microplate reader.

Binder | binding result
B1 | binds
B2 | binds

Target: T2, human fibrin (human fibrinogen coated …)
Assay: single colony ELISA, OD450 on fibrin divided by OD450 on fibrinogen
Method: (§1) E. coli strain ER2738 infected with single-clonal phages each harboring a selected scFv gene in its phagemid was grown in the mid-log phase in 2YT broth (16 g/L tryptone, 10 g/l yeast extract, 5 g/l NaCl, pH 7.0) with 100 μg/ml ampicillin in deep well at 37° C. with shaking. After broth reaching an OD₆₀₀ of 1.0, IPTG was added to a final concentration of 1 μg/ml. The plates were incubated at 37° C. overnight with rigorously shaking. Thereafter, the plates were centrifuged at 4,000 g for 15 minutes at 4° C.
(§2) For soluble scFv binding test, ELISA was carried out. In brief, 96-well Maxisorp 96-well plate (Nunc) was coated with fibrin (0.5 μg/100 μL PBS per well) or a negative control antigen, human fibrinogen, for 18 hours with shaking at 4° C. After treated with 300 μL of blocking buffer for one hour, 100 μL of secreted scFv in the supernatant was mixed with 100 μL of blocking buffer and then added to the coated plate for another one hour. Goat anti-E-tag antibody (conjugated with HRP, 1:4000, Cat. No. AB19400, Abcam) was added to the plate for one hour. TMB substrate (50 μL per well) was added to each well and the absorbance at 450 nm was measured after reactions were stopped by adding 1 N HCl (50 μL per well). The OD₄₅₀ for each well was measured to determine the binding affinity of each scFv clone to fibrin or fibrinogen. For each scFv clone, the OD₄₅₀ value with respect to fibrin was divided by with the OD₄₅₀ value with respect to fibrinogen to obtain an OD₄₅₀ ratio representing the selective binding of said scFv to fibrin over fibrinogen. In the single colony ELISA analysis, a total of 192 phage clones after the 3rd panning round was subjected to the present analysis. Among them, 12 scFv clones that bound to fibrin with an OD₄₅₀ ratio greater than 10 were further characterized by sequencing their scFv-coding gene. Six different DNA sequences were identified. […] The amino acid sequence of an scFv clone D10, which binds to human fibrin with an OD₄₅₀ of 1.3, is shown in SEQ ID NO: 4.

Binder | OD450 ratio (fibrin over fibrinogen)
B3 | 377
B4 | 64.9
B5 | 14.4
B6 | 20.5

Target: T2, human fibrin (human fibrinogen coated …)
Assay: single colony ELISA, secreted scFv on coated fibrin, anti-E-tag-HRP
Method: as §1, §2

Binder | OD450_Fibrin [OD450]
B3 | 0.829
B4 | 0.759
B5 | 0.527
B6 | 0.428
